What was measured:
HeLa Kyoto [1] = assay: melting temperature (median over replicates), in situ; higher = more thermally stable
HeLa Kyoto [2] = assay: solubility in G1/S (NP-40 vs SDS abundance) (log2 ratio); higher = more soluble; details: cell cycle stage: G1/S
HeLa Kyoto [3] = assay: solubility change mitosis vs G1/S (difference of NP-40 vs SDS log2 ratios) (log2 ratio difference); higher = more soluble in mitosis
HeLa Kyoto [4] = assay: thermal stability score vs G1/S (z-score of summed log2 fold changes over temperatures); higher = more thermally stable than in G1/S
[5] = cell cycle stage: early G1 (4.5 h after nocodazole release)
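Throughout, for melting temperature (median over replicates), in situ: HeLa Kyoto cells synchronized by double thymidine or nocodazole block, proteins quantified by TMT10plex mass spectrometry, three independent biological replicates.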
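Throughout, for solubility change mitosis vs G1/S (difference of NP-40 vs SDS log2 ratios): synchronized HeLa Kyoto cells (double thymidine block for G1/S, nocodazole release for mitosis), protein amounts in NP-40 versus SDS lysates quantified by mass spectrometry, three biological replicates.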
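Throughout, for solubility in G1/S (NP-40 vs SDS abundance): HeLa Kyoto cells arrested at G1/S by double thymidine block, proteins quantified by TMT10plex mass spectrometry in mild NP-40 versus SDS extracts, three biological replicates.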
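Throughout, for thermal stability score vs G1/S (z-score of summed log2 fold changes over temperatures): synchronized HeLa Kyoto cells, proteins quantified by TMT10plex mass spectrometry, three biological replicates, mitosis taken 0.5 h after nocodazole release, G1/S directly after double thymidine block.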

In the case of “MIAAQLLAYYFTELKDDQVKKIDKYLYAMRLSDETLIDIMTRFRKEMKNGLSRDFNPTATVKMLPTFVRSIPDGSEKGDFIALDLGGSSFRILRVQVNHEKNQNVHMESEVYDTPENIVHGSGSQLFDHVAECLGDFMEKRKIKDKKLPVGFTFSFPCQQSKIDEAILITWTKRFKASGVEGADVVKLLNKAIKKRGDYDANIVAVVNDTVGTMMTCGYDDQHCEVGLIIGTGTNACYMEELRHIDLVEGDEGRMCINTEWGAFGDDGSLEDIRTEFDREIDRGSLNPGKQLFEKMVSGMYLGELVRLILVKMAKEGLLFEGRITPELLTRGKFNTSDVSAIEKNKEGLHNAKEILTRLGVEPSDDDCVSVQHVCTIVSFRSANLVAATLGAILNRLRDNKGTPRLRTTVGVDGSLYKTHPQYSRRFHKTLRRLVPDSDVRFLLSESGSGKGAAMVTAVAYRLAEQHRQIEETLAHFHLTKDMLLEVKKRMRAEMELGLRKQTHNNAVVKMLPSFVRRTPDGTENGDFLALDLGGTNFRVLLVKIRSGKKRTVEMHNKIYAIPIEIMQGTGEELFDHIVSCISDFLDYMGIKGPRMPLGFTFSFPCQQTSLDAGILITWTKGFKATDCVGHDVVTLLRDAIKRREEFDLDVVAVVNDTVGTMMTCAYEEPTCEVGLIVGTGSNACYMEEMKNVEMVEGDQGQMCINMEWGAFGDNGCLDDIRTHYDRLVDEYSLNAGKQRYEKMISGMYLGEIVRNILIDFTKKGFLFRGQISETLKTRGIFETKFLSQIESDRLALLQVRAILQQLGLNSTCDDSILVKTVCGVVSRRAAQLCGAGMAAVVDKIRENRGLDRLNVTVGVDGTLYKLHPHFSRIMHQTVKELSPKCNVSFLLSEDGSGKGAALITAVGVRLRTEASS [HK1]”, the melting temperature (HeLa Kyoto [1]; cell cycle stage: G1/S) is reported as 51.5 °C, the melting temperature (HeLa Kyoto [1]; cell cycle stage: mitosis) is reported as 51.9 °C and the “solubility in G1/S (log2)” value (HeLa Kyoto [2]) is reported as -0.0302. The “solubility change mitosis (log2)” value (HeLa Kyoto [3]) was -0.149, the thermal stability score (HeLa Kyoto [4]; [5]) was -0.647 and the thermal stability score (HeLa Kyoto [4]; cell cycle stage: mitosis) was -0.641.
With MICAL3 the melting temperature (HeLa Kyoto [1]; cell cycle stage: G1/S) was 51.4 °C, the melting temperature (HeLa Kyoto [1]; cell cycle stage: mitosis) was 50.5 °C and the “solubility in G1/S (log2)” value (HeLa Kyoto [2]) was -0.213. For the same substance, the “solubility change mitosis (log2)” value (HeLa Kyoto [3]) was -0.0995, the thermal stability score (HeLa Kyoto [4]; [5]) was -0.909 and the thermal stability score (HeLa Kyoto [4]; cell cycle stage: mitosis) was -0.953.
For “MIIYRDLISHDEMFSDIYKIREIADGLCLEVEGKMVSRTEGNIDDSLIGGNASAEGPEGEGTESTVITGVDIVMNHHLQETSFTKEAYKKYIKDYMKSIKGKLEEQRPERVKPFMTGAAEQIKHILANFKNYQFFIGENMNPDGMVALLDYREDGVTPYMIFFKDGLEMEKC [TPT1]”, the melting temperature (HeLa Kyoto [1]; cell cycle stage: G1/S) was 53.5 °C, the melting temperature (HeLa Kyoto [1]; cell cycle stage: mitosis) was 52.9 °C and the “solubility in G1/S (log2)” value (HeLa Kyoto [2]) was 0.476. For the same substance, the “solubility change mitosis (log2)” value (HeLa Kyoto [3]) was -0.0912, the thermal stability score (HeLa Kyoto [4]; [5]) was 0.357 and the thermal stability score (HeLa Kyoto [4]; cell cycle stage: mitosis) was 0.0736.
For “MIKKFDKKDEESGSGSNPFQHLEKSAVLQEARIFNETPINPRRCLHILTKILYLLNQGEHFGTTEATEAFFAMTRLFQSNDQTLRRMCYLTIKEMATISEDVIIVTSSLTKDMTGKEDVYRGPAIRALCRITDGTMLQAIERYMKQAIVDKVSSVSSSALVSSLHMMKISYDVVKRWINEAQEAASSDNIMVQYHALGVLYHLRKNDRLAVSKMLNKFTKSGLKSQFAYCMLIRIASRLLKETEDGHESPLFDFIESCLRNKHEMVIYEAASAIIHLPNCTARELAPAVSVLQLFCSSPKPALRYAAVRTLNKVAMKHPSAVTACNLDLENLITDSNRSIATLAITTLLKTGSESSVDRLMKQISSFVSEISDEFKVVVVQAISALCQKYPRKHSVMMTFLSNMLRDDGGFEYKRAIVDCIISIVEENPESKEAGLAHLCEFIEDCEHTVLATKILHLLGKEGPRTPVPSKYIRFIFNRVVLENEAVRAAAVSALAKFGAQNESLLPSILVLLQRCMMDTDDEVRDRATFYLNVLQQRQMALNATYIFNGLTVSVPGMEKALHQYTLEPSEKPFDMKSIPLAMAPVFEQKAEITLVATKPEKLAPSRQDIFQEQLAAIPEFLNIGPLFKSSEPVQLTEAETEYFVRCIKHMFTNHIVFQFDCTNTLNDQLLEKVTVQMEPSDSYEVLSCIPAPSLPYNQPGICYTLVRLPDDDPTAVAGSFSCTMKFTVRDCDPNTGVPDEDGYDDEYVLEDLEVTVSDHIQKVLKPNFAAAWEEVGDTFEKEETFALSSTKTLEEAVNNIITFLGMQPCERSDKVPENKNSHSLYLAGIFRGGYDLLVRSRLALADGVTMQVTVRSKERTPVDVILASVG [COPG2]”, the melting temperature (HeLa Kyoto [1]; cell cycle stage: G1/S) was 52 °C, the melting temperature (HeLa Kyoto [1]; cell cycle stage: mitosis) was 51.8 °C and the “solubility in G1/S (log2)” value (HeLa Kyoto [2]) was -0.192. The “solubility change mitosis (log2)” value (HeLa Kyoto [3]) was -0.304, the thermal stability score (HeLa Kyoto [4]; [5]) was 0.652 and the thermal stability score (HeLa Kyoto [4]; cell cycle stage: mitosis) was 0.0351.

Reference: the supplement of paper PMC5998384
